Test results from publication PMC9984387, “The dynamic nature of netrin-1 and the structural basis for glycosaminoglycan fragment-induced filament formation” (Nature Communications, 2023).

Target: Gallus gallus NET1ΔC loop cd (R374A H375A K395A H399A R400A K401A) (Gallus gallus, UniProt Q90922 26-458, R374A | H375A | K395A | H399A | R400A | K401A)
Experiment: ELISA; glypican-3 coated (0.5 µg/well); soluble NET1ΔC alone (0.5–500 nM, or 500 nM pre-incubated with HO-dp20 for competition); detection with polyclonal NET1 antibody
Conditions: both partners purified

binding result: binds
B1: glypican-3 (AF185614 aa 25-557 R357A) (domain or fragment)
chain: QPPPPPDATCHQVRSFFQRLQPGLKWVPETPVPGSDLQVCLPKGPTCCSRKMEEKYQLTARLNMEQLLQSASMELKFLIIQNAAVFQEAFEIVVRHAKNYTNAMFKNNYPSLTPQAFEFVGEFFTDVSLYILGSDINVDDMVNELFDSLFPVIYTQMMNPGLPESVLDINECLRGARRDLKVFGSFPKLIMTQVSKSLQVTRIFLQALNLGIEVINTTDHLKFSKDCGRMLTRMWYCSYCQGLMMVKPCGGYCNVVMQGCMAGVVEIDKYWREYILSLEELVNGMYRIYDMENVLLGLFSTIHDSIQYVQKNGGKLTTTIGKLCAHSQQRQYASAYYPEDLFIDKKILKVAHVEHEETLSSRRRELIQKLKSFINFYSALPGYICSHSPVAENDTLCWNGQELVERYSQKAARNGMKNQFNLHELKMKGPEPVVSQIIDKLKHINQLLRTMSVPKGKVLDKSLDEEGLESGDCGDDEDECIGSSGDGMVKVKNQLRFLAELAYDLDVDDAPGNKQHGNQKDNEITTSHSVGNM
modifications: three extended GAG chains are attached to the core protein
notes: Glypican-3, AF185614 aa 25-557; Heparan sulphate proteoglycan; also called GPC3; source: HEK 293 (sleeping beauty transposon system, BM40 signal peptide), purified (Strep-Tactin)
